Assay results taken from patent US20250186602A1, “HUMANIZED ANTIBODY THAT BONDS TO EVA1 PROTEIN OR FUNCTIONAL FRAGMENT THEREOF, ANTIBODY-DRUG CONJUGATE AND CHIMERIC ANTIGEN RECEPTOR” (CURED INC., priority 2022, published 2025).

T1: hEva1-mouse Fc (human, UniProt O60487 27-154, limits assumed)
T1 construct: SPR analyte; the '1' is probably the first concentration (1 nM); also called hEva1-mouse Fc1 (so in the source); not shown: mouse Fc
T1 sequence: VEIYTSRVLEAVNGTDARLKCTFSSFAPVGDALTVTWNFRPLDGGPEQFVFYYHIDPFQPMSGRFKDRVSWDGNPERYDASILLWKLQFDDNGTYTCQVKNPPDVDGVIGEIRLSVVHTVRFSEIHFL


Biological target: T1, hEva1-mouse Fc
Test: SPR (BiaCore T200), single-cycle kinetics; antibody captured by anti-human IgG on CM5 chip, hEva1-mouse Fc as analyte
Conditions: not given
Procedure: (§1) The dissociation constants and association constants of the humanized antibodies and the like were analyzed by using surface plasmon resonance (SPR, product name: BiaCore T200 (manufactured by GE healthcare)).
Specifically, first, human IgG capture antibodies were immobilized on a CM5 chip by an amine coupling method. […] Then, the kinetics analysis on the anti-Eval antibody and hEva1 was conducted by a single-cycle method using the following measurement conditions.

Molecule | Kd [nM] | koff [s⁻¹] | kon [M⁻¹ s⁻¹]
humanized B2E5-48 antibody H3-L4 (antibody, human IgG1, V domains shown, Human IgG1 heavy chain and human kappa light chain vectors; made in HEK293T cells) VH: QVQLVQSGSELKKPGASVKVSCKASGYTFTNYWMHWVRQAPGQGLEWIGEINPTNGGTDYNEGFTGRFVLSVDKSSSTAYLQISSLKAEDTAVYYCTIYTTALDYWGQGTLVTVSS VL: DIQLTQSPSFLSASVGDRVTITCRASSSVGYMYWYQQKPGKAPKPLIYVTSNLASGVPSRFSGSGSGTEYTLTISSLQPEDFATYYCQQWSSNPPTFGQGTKLEIK | 873 | 0.0138 | 15800
humanized B2E5-48 antibody H4-L4 (antibody, human IgG1, V domains shown, Human IgG1 heavy chain and human kappa light chain vectors; made in HEK293T cells) VH: QVQLVQSGSELKKPGASVKVSCKASGYTFTNYWMHWVRQAPGQGLEWMGEINPTNGGTDYNEGFTGRFVFSVDKSVSTAYLQISSLKAEDTAVYYCTIYTTALDYWGQGTLVTVSS VL: DIQLTQSPSFLSASVGDRVTITCRASSSVGYMYWYQQKPGKAPKPLIYVTSNLASGVPSRFSGSGSGTEYTLTISSLQPEDFATYYCQQWSSNPPTFGQGTKLEIK | 994 | 0.0152 | 15300
humanized B2E5-48 antibody H2-L2 (antibody, human IgG1, V domains shown, Human IgG1 heavy chain and human kappa light chain vectors; made in HEK293T cells; also called B2E5-H2-L2) VH: QVQLVQSGAEVKKPGASVKVSCKASGYTFTNYWMHWVRQAPGQGLEWMGEINPTNGGTDYNEKFQGRVTMTVDKSTSTAYMELSSLRSEDTAVYYCTIYTTALDYWGQGTLVTVSS VL: EIVLTQSPATLSLSPGERATLSCRASSSVGYMYWYQQKPGQAPRPLIYVTSNRATGIPARFSGSGSGTDYTLTISSLEPEDFAVYYCQQWSSNPPTFGQGTKLEIK | 467 | 0.0092 | 19700
humanized B2E5-48 antibody H2-L3 (antibody, human IgG1, V domains shown, Human IgG1 heavy chain and human kappa light chain vectors; made in HEK293T cells) VH: QVQLVQSGAEVKKPGASVKVSCKASGYTFTNYWMHWVRQAPGQGLEWMGEINPTNGGTDYNEKFQGRVTMTVDKSTSTAYMELSSLRSEDTAVYYCTIYTTALDYWGQGTLVTVSS VL: QIQLTQSPSFLSASVGDRVTITCRASSSVGYMYWYQQKPGKAPKPLIYVTSNLASGVPSRFSGSGSGTEYTLTISSLQPEDFATYYCQQWSSNPPTFGQGTKLEIK | 428 | 0.00886 | 20700
humanized B2E5-48 antibody H3-L2 (antibody, human IgG1, V domains shown, Human IgG1 heavy chain and human kappa light chain vectors; made in HEK293T cells) VH: QVQLVQSGSELKKPGASVKVSCKASGYTFTNYWMHWVRQAPGQGLEWIGEINPTNGGTDYNEGFTGRFVLSVDKSSSTAYLQISSLKAEDTAVYYCTIYTTALDYWGQGTLVTVSS VL: EIVLTQSPATLSLSPGERATLSCRASSSVGYMYWYQQKPGQAPRPLIYVTSNRATGIPARFSGSGSGTDYTLTISSLEPEDFAVYYCQQWSSNPPTFGQGTKLEIK | 787 | 0.0132 | 16800
humanized B2E5-48 antibody H4-L2 (antibody, human IgG1, V domains shown, Human IgG1 heavy chain and human kappa light chain vectors; made in HEK293T cells) VH: QVQLVQSGSELKKPGASVKVSCKASGYTFTNYWMHWVRQAPGQGLEWMGEINPTNGGTDYNEGFTGRFVFSVDKSVSTAYLQISSLKAEDTAVYYCTIYTTALDYWGQGTLVTVSS VL: EIVLTQSPATLSLSPGERATLSCRASSSVGYMYWYQQKPGQAPRPLIYVTSNRATGIPARFSGSGSGTDYTLTISSLEPEDFAVYYCQQWSSNPPTFGQGTKLEIK | 768 | 0.0146 | 19000

Results, then the molecule that gave them:

Kd [nM] | koff [s⁻¹] | kon [M⁻¹ s⁻¹] | Molecule
835 | 0.0125 | 15000 | humanized B2E5-48 antibody H3-L3 (antibody, human IgG1, V domains shown, Human IgG1 heavy chain and human kappa light chain vectors; made in HEK293T cells) VH: QVQLVQSGSELKKPGASVKVSCKASGYTFTNYWMHWVRQAPGQGLEWIGEINPTNGGTDYNEGFTGRFVLSVDKSSSTAYLQISSLKAEDTAVYYCTIYTTALDYWGQGTLVTVSS VL: QIQLTQSPSFLSASVGDRVTITCRASSSVGYMYWYQQKPGKAPKPLIYVTSNLASGVPSRFSGSGSGTEYTLTISSLQPEDFATYYCQQWSSNPPTFGQGTKLEIK
533 | 0.00931 | 17500 | humanized B2E5-48 antibody H1-L4 (antibody, human IgG1, V domains shown, Human IgG1 heavy chain and human kappa light chain vectors; made in HEK293T cells) VH: QVQLVQSGAEVKKPGASVKVSCKASGYTFTNYWMHWVRQAPGQGLEWIGEINPTNGGTDYNEKFQGRVTLTVDKSSSTAYMELSSLRSEDTAVYYCTIYTTALDYWGQGTLVTVSS VL: DIQLTQSPSFLSASVGDRVTITCRASSSVGYMYWYQQKPGKAPKPLIYVTSNLASGVPSRFSGSGSGTEYTLTISSLQPEDFATYYCQQWSSNPPTFGQGTKLEIK
877 | 0.0136 | 15500 | humanized B2E5-48 antibody H4-L3 (antibody, human IgG1, V domains shown, Human IgG1 heavy chain and human kappa light chain vectors; made in HEK293T cells) VH: QVQLVQSGSELKKPGASVKVSCKASGYTFTNYWMHWVRQAPGQGLEWMGEINPTNGGTDYNEGFTGRFVFSVDKSVSTAYLQISSLKAEDTAVYYCTIYTTALDYWGQGTLVTVSS VL: QIQLTQSPSFLSASVGDRVTITCRASSSVGYMYWYQQKPGKAPKPLIYVTSNLASGVPSRFSGSGSGTEYTLTISSLQPEDFATYYCQQWSSNPPTFGQGTKLEIK
529 | 0.0091 | 17200 | humanized B2E5-48 antibody H2-L4 (antibody, human IgG1, V domains shown, Human IgG1 heavy chain and human kappa light chain vectors; made in HEK293T cells) VH: QVQLVQSGAEVKKPGASVKVSCKASGYTFTNYWMHWVRQAPGQGLEWMGEINPTNGGTDYNEKFQGRVTMTVDKSTSTAYMELSSLRSEDTAVYYCTIYTTALDYWGQGTLVTVSS VL: DIQLTQSPSFLSASVGDRVTITCRASSSVGYMYWYQQKPGKAPKPLIYVTSNLASGVPSRFSGSGSGTEYTLTISSLQPEDFATYYCQQWSSNPPTFGQGTKLEIK

System: hEva1-mouse Fc
Test: Surface plasmon resonance kinetics analysis (BiaCore T200, single-cycle)
Format: binding, human
Conditions: SPR, antibody captured 5 nM, analyte hEva1-mouse Fc 1-250 nM, HBS-EP+ pH 7.4
Procedure: as §1
Specifically, first, human IgG capture antibodies were immobilized on a CM5 chip by an amine coupling method. This immobilization was conducted in both reference cells and active cells. Then, the kinetics analysis on the anti-Eval antibody and hEva1 was conducted by a single-cycle method using the following measurement conditions.
• Sample compartment temperature: 10° C. • Running buffer: HBS-EP+buffer, pH 7.4 • Capturing molecule: Human IgG antibody, reference & active cells • Ligand: Various antibodies 5 nM, active cells only • Analyte: hEva1-mouse Fc1, 5, 25, 125, 250 nM, reference & active cells • Regeneration buffer: 3M MgCl2, reference & active cells • 3 cycles of Blanks (Analyte zero concentration)

kd [s⁻¹] | Molecule | ka [M⁻¹ s⁻¹]
0.01253 | H3-L3: humanized B2E5-48 IgG1, VH H3 (SEQ ID NO: 16), VL L3 (SEQ ID NO: 10) (antibody, V domains shown, Variable Region of Heavy Chain 3 (Humanized B2E5-48); Variable Region of Light Chain 3 (Humanized B2E5-48)) VH: QVQLVQSGSELKKPGASVKVSCKASGYTFTNYWMHWVRQAPGQGLEWIGEINPTNGGTDYNEGFTGRFVLSVDKSSSTAYLQISSLKAEDTAVYYCTIYTTALDYWGQGTLVTVSS VL: QIQLTQSPSFLSASVGDRVTITCRASSSVGYMYWYQQKPGKAPKPLIYVTSNLASGVPSRFSGSGSGTEYTLTISSLQPEDFATYYCQQWSSNPPTFGQGTKLEIK | 15010
0.009313 | H1-L4: humanized B2E5-48 IgG1, VH H1 (SEQ ID NO: 15), VL L4 (SEQ ID NO: 8) (antibody, V domains shown, Variable Region of Heavy Chain 1 (Humanized B2E5-48); Variable Region of Light Chain 4 (Humanized B2E5-48)) VH: QVQLVQSGAEVKKPGASVKVSCKASGYTFTNYWMHWVRQAPGQGLEWIGEINPTNGGTDYNEKFQGRVTLTVDKSSSTAYMELSSLRSEDTAVYYCTIYTTALDYWGQGTLVTVSS VL: DIQLTQSPSFLSASVGDRVTITCRASSSVGYMYWYQQKPGKAPKPLIYVTSNLASGVPSRFSGSGSGTEYTLTISSLQPEDFATYYCQQWSSNPPTFGQGTKLEIK | 17470
0.008858 | H2-L3: humanized B2E5-48 IgG1, VH H2 (SEQ ID NO: 13), VL L3 (SEQ ID NO: 10) (antibody, V domains shown, Variable Region of Heavy Chain 2 (Humanized B2E5-48); Variable Region of Light Chain 3 (Humanized B2E5-48)) VH: QVQLVQSGAEVKKPGASVKVSCKASGYTFTNYWMHWVRQAPGQGLEWMGEINPTNGGTDYNEKFQGRVTMTVDKSTSTAYMELSSLRSEDTAVYYCTIYTTALDYWGQGTLVTVSS VL: QIQLTQSPSFLSASVGDRVTITCRASSSVGYMYWYQQKPGKAPKPLIYVTSNLASGVPSRFSGSGSGTEYTLTISSLQPEDFATYYCQQWSSNPPTFGQGTKLEIK | 20710
0.009101 | H2-L4: humanized B2E5-48 IgG1, VH H2 (SEQ ID NO: 13), VL L4 (SEQ ID NO: 8) (antibody, V domains shown, Variable Region of Heavy Chain 2 (Humanized B2E5-48); Variable Region of Light Chain 4 (Humanized B2E5-48)) VH: QVQLVQSGAEVKKPGASVKVSCKASGYTFTNYWMHWVRQAPGQGLEWMGEINPTNGGTDYNEKFQGRVTMTVDKSTSTAYMELSSLRSEDTAVYYCTIYTTALDYWGQGTLVTVSS VL: DIQLTQSPSFLSASVGDRVTITCRASSSVGYMYWYQQKPGKAPKPLIYVTSNLASGVPSRFSGSGSGTEYTLTISSLQPEDFATYYCQQWSSNPPTFGQGTKLEIK | 17200
0.0132 | H3-L2: humanized B2E5-48 IgG1, VH H3 (SEQ ID NO: 16), VL L2 (SEQ ID NO: 7) (antibody, V domains shown, Variable Region of Heavy Chain 3 (Humanized B2E5-48); Variable Region of Light Chain 2 (Humanized B2E5-48)) VH: QVQLVQSGSELKKPGASVKVSCKASGYTFTNYWMHWVRQAPGQGLEWIGEINPTNGGTDYNEGFTGRFVLSVDKSSSTAYLQISSLKAEDTAVYYCTIYTTALDYWGQGTLVTVSS VL: EIVLTQSPATLSLSPGERATLSCRASSSVGYMYWYQQKPGQAPRPLIYVTSNRATGIPARFSGSGSGTDYTLTISSLEPEDFAVYYCQQWSSNPPTFGQGTKLEIK | 16770
